Values quoted from earlier work in paper PMC7654312.

Legend:
Lys210 [1] = target: Lys210 (UniProt position 210, VVKVAKLGISE)
Lys210 [2] = test system: Lys210

Retro-aldolase RA95.0 (computationally designed) (synthetic construct (design on an indole-3-glycerol phosphate synthase TIM-barrel scaffold))
pKa (Lys210 [1]): 8.1

Retro-aldolase RA95.5 (evolved variant of RA95.0) (synthetic construct (design on an indole-3-glycerol phosphate synthase TIM-barrel scaffold); T83K)
pKa (Lys210 [2]): 7.6
